The text below walks through data of US9835616B2, “In vitro method for assessing cytokine storm responses” (IMPERIAL INNOVATIONS LTD., priority 2013, dated 2017).

Holding throughout (assay type): cell-based, human
One data set deals with HUVEC. Nature of the data set: HUVEC mono-culture, CXCL8 by ELISA. The conditions noted are these: 10 μg/ml, 24 h, FIG. 3A. As for the experimental part: (§1) FIG. 3A-B HUVEC (A) and mixed donor BOEC (B) plus PBMC mono and co-culture bioassay data. PBMCs were added to HUVEC (A) or BOEC from different donors (B) after 24 h. For monocultures vehicle media was added. At the same time cultures were treated +/− vehicle, ANC28 (TGN1412-like superagonist) (10 μg/ml), Campath (10 μg/ml), Avastin (10 μg/ml) or Arzerra (10 μg/ml) for 24 h. Data are mean±SEM (A; n=3) (B; n=3). Statistical significance between treatments was determined by one-way ANOVA followed by Bonferroni's Multiple Comparison test (*p<0.05)
Plates were incubated at 37° C., 5% CO2.
In order to compare data from our same-donor assay with the current state-of-the-art assays^1,3,17, we ran parallel experiments using HUVECs as the detector endothelial cell model. PBMCs again released low levels of CXCL8 that was not increased by any of the biotherapetuics tested (FIG. 3A). HUVEC released relatively higher basal levels of CXCL8 that were not increased by anti-CD28 superagonist or Campath. […] The basis for these different results cannot be investigated further as HUVEC donors, unlike BOEC, cannot be easily traced and studied further. Similar results were found when PBMCs were added to BOECs from a different donor. Importantly, co-cultures of HUVEC and PBMC (from two donors) responded to TGN1412-like superagonist (ANC28) and Campath. This captures fully what is already know for this assay which, since the TGN1412 phase 1 trial, is as used as the gold standard assay to test biotherapeutics at the preclinical stage^1,17,18. […] This immune activation response in control or other conditions is likely due to the mixing of tissue from different donors and is a serious limitation for the HUVEC or other similar assays, but one that is totally avoided by our ‘same donor’ assay.

Data set [1] relates to co-cultures of HUVEC and PBMC. Nature of the data set: HUVEC plus PBMC co-culture assay (two donors), CXCL8. The settings on record: HUVEC + PBMC co-culture from two donors, 10 μg/ml, 24 h, FIG. 3A. As for the experimental part: as §1
Supernatants were discarded from each tube.
In order to compare data from our same-donor assay with the current state-of-the-art assays^1,3,17, we ran parallel experiments using HUVECs as the detector endothelial cell model. PBMCs again released low levels of CXCL8 that was not increased by any of the biotherapetuics tested (FIG. 3A). HUVEC released relatively higher basal levels of CXCL8 that were not increased by anti-CD28 superagonist or Campath. […] The basis for these different results cannot be investigated further as HUVEC donors, unlike BOEC, cannot be easily traced and studied further. Similar results were found when PBMCs were added to BOECs from a different donor. Importantly, co-cultures of HUVEC and PBMC (from two donors) responded to TGN1412-like superagonist (ANC28) and Campath. […]

Data set [2] concerns same donor BOEC: PBMC co-culture. As to the kind of experiment: MSD 9-plex pro-inflammatory cytokine array on matched BOEC:PBMC co-cultures. The settings on record: 10 μg/ml, 24 h, FIG. 5. As for the experimental part:
FIG. 5A-C Cytokine release data from MSD analysis. Measurements were carried out using an MSD 10-spot 9-plex Pro-Inflammatory Assay (see methods). Data are mean±SEM (n=5 from matched 5 donors). Statistical testing was carried out between 5 donors by one-way ANOVA followed by Dunnett's multiple comparison test comparing responses with drug to respective control only (*p<0.05).
Plates were then incubated for 24 h.
To further analyse the cytokines released by matched BOEC and PBMC co-cultures as well as respective monocultures following stimulation with biologics an MSD (Meso Scale Discovery, USA) platform analysis was used. Human pro-inflammatory 9-Plex MULTISPOT 96-well-10 spot MSD plates were purchased from MSD (Gaithersburg, Md.) (Cat no. N05007A-1). Samples were diluted 1:10 in Lonza-EGM2 10% FBS/RPMI mix and added to the MSD plate. The immunoassay was carried out according to manufacturer's instructions. Plates were read using an MSC Sector Imager 2400 and analysed using MSD Discovery® Workbench software. Cytokines analysed were IL-2, CXCL8 (IL-8), IL-12q70, IL-1β, GM-CSF, IFNγ, IL-6, IL-10 and TNFα.

On to alemtuzumab [Campath], for which, in the data set on HUVEC, the CXCL8 release result is “not increased”. Moreover, the CXCL8 release result in data set [1] is recorded as “responded”. In addition, in data set [2], the GM-CSF release entry is “tendency to elevate”, the IL-6 release entry is on record as “tendency to elevate” and the IL-8 release result is listed as “tendency to elevate”.
With bevacizumab [Avastin], the CXCL8 release entry with HUVEC is listed as “tendency to respond”.
On the same count and under the same terms, to ofatumumab [Arzerra] belongs “tendency to respond”.
